Assay results published in patent publication US20130058955A1.

Tests used:
[1] = target: K63-linked diubiquitin (Boston Biochem) (human) (UniProt P0CG48); assay: western blot, IgG 1 µg/mL, two-fold dilutions of K63-linked diubiquitin 1 µg to 16 ng
[2] = target: K11 polyubiquitin linkages in 293T cell lysates (human) (UniProt P0CG48); assay: IP from 293T lysate (empty vector), 7 M urea, mass spec AQUA; input 1085 pmol
[3] = target: K48 polyubiquitin linkages in 293T cell lysates (human) (UniProt P0CG48); assay: IP from lysate of 293T cells over-expressing LUBAC, 7 M urea, mass spec AQUA; input 12420 pmol

limit of detection [1]	pmol of ubiquitin linkage in the immunoprecipitate [2]	pmol of ubiquitin linkage in the immunoprecipitate [3]	Substance
62 ng			Apu3.A8 anti-K63 IgG (antibody)
	0 pmol	1 pmol	isotype control IgG (unrelated human kappa IgG1 antibody)
